Data as given in the DeepSol protein solubility set.

Test: soluble on expression in E. coli; label from the status in PepcDB or PDB records

Which “soluble on expression in E. coli” value does the source give for “MTNELLIEIGTEELPAGVINPALDYLKDKINSLLNARQVKTYGTPRRLTLYFKDFENERKEKKEVIWGPPKNVAYDEKGNPTKALEGFLKKNNASLEEVKVLKKDKGEYVAIVRKVIEKSPIEKLQEEFEEILLSVPFPKRMRWTSSKRITFSRPVRWILALFNGQVLKLRFGELESSNKTYGHRFLSKGEVTINNPADYEKTLKEHYVIPDFNERKEIILRALEKSSQEVGGKPSYPEGLVEEVTNLVEYPFPVLGKFDEKYLELPPLVITTVAAHHQRFFCFEKDGKLLNYFLGISNNKPNEKIKEGYEKVLRARLEDALFFYREDLKKDLKSLIPELKKVLFHPKVGSMYEKEERMEKIAQKLCPLLKCEWEKVKEAVWLSKVDLLTEMVKELDELQGYMGYVYAKAQGYDEEVAKALWEQYFPRSLEDKVPETTTGTILSLSDKIDNLYSFFKAGEIPKGSSDPYGLRRSAFGIIKIVDVKNLDLNLEDFKEIYGEFKQYPKLVEFLKQRLISYLEDYPVDIVRAVLNVYSPMEPYKVINSVRVLYEASKSPEFPSVVEAAKRVIRIIPKDWKNYEVDEKLLSEEAERELYQKLTEFENKELKSPLELLPLKEYIDKFFDNVKVMAEDEKIRNNRISLLKRVENLFRTFGDFNEIVIKEG” here?
The value was “soluble”.

Which “soluble on expression in E. coli” value does the source give for “MTNNQTLDILLDVYAYNHAFRIAKALPNIPKTALYLLEMLKERRELNLAFLAEHAAENRTIEDQYHCSLWLNQSLEDEQIANYILDLEVKVKNGAIIDFVRSVSPILYRLFLRLITSEIPNFKAYIFDTKNDQYDTWHFQAMLESDHEVFKAYLSQKQSRNVTTKSLADMLTLTSLPQEIKDLVFLLRHFEKAVRNPLAHLIKPFDEEELHRTTHFSSQAFLENIITLATFSGVIYRREPFYFDDMNAIIKKELSLWRQSIV” here?
The value was “not soluble”.

With “MTNVCDLTDRKCKPCEGGVPPLEMEEAEKLLKQLEQGWQLADNKISRTFSFKNYYQTMAFVNAIAWVSHREDHHPDMMVGYDWCRVEYMTHAIGGLSENDFICAAKVDMLFKS” as the sequence, how does the “soluble on expression in E. coli” value read?
Its value is “not soluble”.

Which “soluble on expression in E. coli” value does the source give for “MTNWLIAYQGEPGAYSEIAALRFGEPLPCESFDDVFSAVTEQKADYAVIPIENSLGGSIHQNYDLLLRRPVVILAETFVKVEHCLLGLPGASVETATKAMSHPQALVQCHNFFATHPQIRAEAAYDTAGSAKMVAESRDKSALAIASKRAGELYGLDILKENLADEEWNITRFFCIAHENNPDISHLKVRPDVARQKTSIVFALPNEQGSLFRALATFALRGIDLTKIESRPSRKKAFEYLFYADFIGHREDQNVHNALENLREFATMVKVLGSYGVVNP” here?
Its value is “soluble”.

Which “soluble on expression in E. coli” value does the source give for “MTPEALSFWTQADKPFLFLAACIELTNALAYGPGYVCGLPCSWDGSCSGAQHLCAATRSEDAWKVNLIGNDEVHDLYTIVGNAAKQSMARDTDPMVSTILAYEGDWRKVFKRNTMTTFYGSKGFGMAQQHMDDLMEPLSREVMQKKRAKHPFGQTRKEHHAASRLLAAHAAAAIKGEIPLAIKAMEFIQKLSAMMAHEGKPLEWTTPIGLPWSNRYHDPVTERVNLWMHDHGVRRPFRPVVADGYKKTINKNHSVNGSAPNFVHACDAAHLLRTVNAARAEGITQFALVHDSFGSLPSHAARFRQIIREEFVRMYEEHDVLTEVLEQAKCDLDEHNDKLSALVDMRADLTGKLNIKEVLNAEYAFAYPKLSEPDTKGEYADGKYKTEGTATEDYTERFQEEIQKVADDNFPGKKNVHLPWKETKEGDIAFIFKNPKKKPILTDSRGKPLKEGTVIRGGSKIRIAGVIAAWEKGAKRGVSLWPDAVRVIKLSEGFDANAAFGAAEDGFNADDYEPTNFGNDGEDADNDADDAEAGDDAFKLLEHHHHHH” here?
Its value is “not soluble”.

For “MTPEAPYASLTEIEHLVQSVCKSYRETCQLRLEDLLRQRSNIFSREEVTGYQRKSMWEMWERCAHHLTEAIQYVVEFAKRLSGFMELCQNDQIVLLKAGAMEVVLVRMCRAYNADNRTVFFEGKYGGMELFRALGCSELISSIFDFSHSLSALHFSEDEIALYTALVLINAHRPGLQEKRKVEQLQYNLELAFHHHLCKTHRQSILAKLPPKGKLRSLCSQHVERLQIFQHLHPIVVQAAFPPLYKELFST”, which “soluble on expression in E. coli” value is on record?
Its value is “soluble”.

For “MTPGGQAQIGNVDLVKQLNSAAVYRLIDQYGPISRIQIAEQSQLAPASVTKITRQLIERGLIKEVDQQASTGGRRAISIVTETRNFHAIGVRLGRHDATITLFDLSSKVLAEEHYPLPERTQQTLEHALLNAIAQFIDSYQRKLRELIAISVILPGLVDPDSGKIHYMPHIQVENWGLVEALEERFKVTCFVGHDIRSLALAEHYFGASQDCEDSILVRVHRGTGAGIISNGRIFIGRNGNVGEIGHIQVEPLGERCHCGNFGCLETIAANAAIEQRVLNLLKQGYQSRVPLDDCTIKTICKAANKGDSLASEVIEYVGRHLGKTIAIAINLFNPQKIVIAGEITEADKVLLPAIESCINTQALKAFRTNLPVVRSELDHRSAIGAFALVKRAMLNGILLQHLLEN”, which “soluble on expression in E. coli” value is on record?
The value was “soluble”.

With “MTPVQLKNYLEQLVGNQIKTSTMIWGPPGIGKSSIVAQIAEEGKLRFIDLRLSQLAPTDLRGLPVAIPTSKTKPQTGTSAWYPPEFLPKDGAGILFLDELNMAPPAMQGVAQQLILDRRVGSYEVPTDWFIWAAGNRKEDRASVFEMPAPLANRFLHLDVQPDFESFKQYALEQKYHEQVIAFLSFRPGLIHKLDLQRPAWPSPRSWAIANGLHQVNLDVSPAVGEGCAAEFSAFVQLYKDLPDLEAIFRGQGQNIGFPTEPSSGYASTIGLAVRAKDATAGVNAFHWLTDKADSEWVQLFVTDMAGQLRRAGHLGALSIMAKKEPKLKQFMQGYQELLAILEHHHHHH” as the sequence, how does the “soluble on expression in E. coli” value read?
The value was “soluble”.

With “MTQETFTATTRVKRGLADMLKGGVIMDVVTPEQARIAEDAGASAVMALERVPADIRAQGGVARMSDPDLIEGIVNAVSIPVMAKARIGHFVEAQILESLGVDFIDESEVLSPADYVNHIDKWNFDVPFVCGATNLGEALRRITEGAAMIRSKGEAGTGDVSEAVKHLRTIRGEINRLRSMDEDQLYVAAKEIQAPYDLVREVAATGKLPVTLFVAGGVATPADAALVMQMGAEGVFVGSGIFKSGNPAARAAAIVKATTMYDDPAAIAEVSRGLGEAMVGINVADVPAPHRLAERGW” as the sequence, how does the “soluble on expression in E. coli” value read?
Its value is “not soluble”.

Which “soluble on expression in E. coli” value does the source give for “MTQPFNFEQALKDLQSGKSLTGKDSILGPLIKQLTEAALQAELEQHLAHDPQPNRKNGKTPKTIKHPSGNFELDAPRDRNGTFEPQLIKKNQTTLTDEIERKVLSMFSIGMSYRDINQHVEDMYGLNVSNATVSAITDKLIPELKAWQQRPLDSHYPIVWLDAIHYKVKEDGRYVSKAVYTLLALNMKGKKEILGLHLSENEGANYWLSVLADLNNRGVKDILIACVDGLTGFPEAIASIFPHTETQLCVIHQIRNSMKYVASKNQKAFMADLKPVYRAVSKEAAEMALDELEAKWGDAYPLVINSWRRKWHNLSHYFKYPEHIRKVIYTTNAVEAVHRQFRKLTKTKGAFPNENSLLKLLYAGILNASDKWTMPIHNWSLCLSQLAIYFEGRLDSVLEI” here?
Its value is “not soluble”.

For “MTQTASLFLQDSYREECLARITDVVEDGLLLDQTVFYPQGGGQAGDSGWLTLADGTRLRIADTRKGTEAGAGRDAILHIPAEGQATVLRAMKPGEVVLAQIDWVRRYRHMRLHTAAHMLCAVLPYPVNGCSITDEHARLDFVTSEPLSREAIDSALAAMVEAAHPVSIDTMSDDALRARPDLVRTMSVQPPMGAGQVRLVSIKDTDLQPCGGTHVANTEEVGVVRVSKMEKKSARTRRVVLVLG”, which “soluble on expression in E. coli” value is on record?
Its value is “not soluble”.

For “MTQVSIIVPVLNEESTIHSAVSRLCRDFPDCELIVVDGGSTDATAELAALHATVIGSERGRAKQMNEGARHASGGILWFIHADTAIEPEALGQIRSVLADPAVVAGGLTLRFDRRTPALNYLAWTSNARARRLHHIFGDQAMFIRRTAFDELGGFPDLAIMEDLEMSRRLHRRGPLRLLPATSTASSRRLTAHGTWRMIAFMQYLKLLYFAGADPEAIRARYTAGPRLFPKRNPATLEHHHHHH”, which “soluble on expression in E. coli” value is on record?
Its value is “not soluble”.

With “MTRQRFISDDHYKFQSEHFIRLHGCDISLFPLEIKGKESISDVYSYEIKCFSRTDHNSLDKLHGTRLSCEIGEQYNSLPARFIHGVVTKVIYNYDNSMQHTCIIILQPEIAELASGKRTRVWSNIKPSDIVSTILEDSLFSPPQVILYKEQNLLEYKIQYQESDLDFINRILSEAGIYYFFVHNRDKHIMTLADDPASHPKASYDKLEHLPCENLKESRHGYIREWSFTESLKCPSVTLSGYNESNVSEITIKSESKLTDVKPSKGVYEDIIPERKRELIKKRSEALIASCDSELKIWSGKTDSWWLSCGECFSLDKQDYRITSLYLNAVNNDNEHAGLCYCDLCASDNKSSLNFSREFKTPIIPGVLLARVVGPDSEEYYTDDNGRVKISFLWGEKSAAGTDKTSCWVRVSQVWSGEGFGSQFIPRIGSEVLVSFIQGNPDYPVIVGTVYNGQNTSPFSLPENNCKSGFITRSVKNGKKGEGHQLVFDDKEGEEKVIVTSSGDSLLTVKKDMISTINRSMSLTIAEGRNAEIKRGNDRLVLKEGDLHNDVHGNINIKVSNGDYNLKVSGGSGSLITDKNLTLESTQSIKIKVGANEITISTSGIDIKAAKITIEGQVSAEVKAATLKFESQAISEVKGTMLTLQGSAMTQIKGGIVNIG” as the sequence, how does the “soluble on expression in E. coli” value read?
Its value is “not soluble”.

For “MTSGKIHNPLNRQHSELRSKNVSLSNGDPFTIALFGVDSNAQRKSENDGERSDTIMLLSINPKKQTTEIVSVPRDTQAEIVGKGTTEKINHAYAYGGPTMAVKSLEKLMNVPIDHYATVDMDGLHDMIDALGGVNVTSNDTFTTKGTNFVKGQSTHVDGDTAMAFIRSRKEEGAGGDFGRQERQQLILQAMANKMTSTSALTHFPSLINQIQKNVKTDLTLNDMNDIRKNYKNANTTVNRHQLEGQGGIQDDGLWYFIPNDDSKQSATEILNNNLQNLEHHHHHH”, which “soluble on expression in E. coli” value is on record?
Its value is “soluble”.

For “MTSMHTSVNGCKFCDIVKNKKELQLKENKSCVVINDIKPKAKNHYLVLSKQHIAKPTDLTVADVPLLEEMEKTGRELLREHLKKKGEADTVEDMLRIGFHLPPLLSVHHLHMHIIYPISDMGLISRKLTFRPGKVFKPARELIDQLKEDAGVPDPLEGNPAKDDVHEKIPAQVIS”, which “soluble on expression in E. coli” value is on record?
Its value is “not soluble”.

Which “soluble on expression in E. coli” value does the source give for “MTSNFREYLFAPDHPRLAELRELDAYAYRTVARRPGTFTGDLVAGWTPLYKNEFRGVTEDGTLREDVHCLEPARAGEAAPVPEMVAAAADLLAGLDDESRERIRYRVDAPEWQTWANPEFMQFDTGIRLEFQSEDVRRKALRLMASSLSPQGYELARNMMLINGFLGEVVGLPGILNEFSYNMAIYGTPHETRPWGWQVFGHHLAVNCFVVDGRMVISPLFLGAEPNEIDEGEHAGVTSFGTRIELGLALMAELTPEQRCAATVYEQMVDPAMPPGRVHPGDERHLAGAFQDNRQIPFEGVRVADLSCRAQELVLEIVEQFVALLPDGPRAARMREVRKMLSQTWFSWIGGHRPGDVFYYRVQSPVIIAELDHHCGVFLDYDTPKPFHIHTVVRTPHGNDYGRAYLRQWEQGHRLEHHHHHH” here?
Its value is “soluble”.

For “MTSQRCRRRYFMMIRERIEEKLRAAFQPVFLEVVDESYRHNVPAGSESHFKVVLVSDRFTGERFLNRHRMIYSTLAEELSTTVHALALHTYTIKEWEGLQDTVFASPPCRGAGSIALEHHHHHH”, which “soluble on expression in E. coli” value is on record?
The value was “not soluble”.

For “MTSQTAFDLIFRNTLLRSSAAPVDIGVKGGRIAAIEPGLTCEAVEVDVGGHLALPGFVDTHIHLDKACLLGRCGHNHGSVSEAIRAVAGMKKDFTVEDVYARGARVLERAIVHGTTRMRTHVEIDPRIGLRGFEAVKALKRDYAWAIDLSLCVFPQEGLTNDPGAEDLLIQALRDGGETIGGCPYMDTDPNTHLERIFNLAQEFDVDVDLHLDFDLDPSWWHLDEVCRQTERRNYGGRVAVGHATKLSALPPEPLKAATAQLAKAGVAVTVLPATDLYLMGREATHNAPRGLTLAHKLAGDGVLCSVATNNVLNPFTPFGDASLLRMANFYANVAHASVSDFDICLDLVTELPARLMNLGDYGIKVGNPADLIVLDTQDSRFAIAELPDVMMGFKAGRQTFARQRPTLFSPGR”, which “soluble on expression in E. coli” value is on record?
The value was “soluble”.
